# In publication PMC13218038 (ACS Nano, 2026):
# B1: cholera toxin B-subunit (CTB) (natural protein)
# chain: TPQNITDLCAEYHNTQIYTLNDKIFSYTESLAGKREMAIITFKNGAIFQVEVPGSQHIDSQKKAIERMKDTLRIAYLTEAKVEKLCVWNNKTPHAIAAISMAN
# Target: the molecule itself
# Test: SDS-PAGE of unboiled and boiled samples
protein,measurement,value
B1,stoichiometry N,5
